These are literature values, as cited in article PMC5964610.

The data set deals with FER (Arabidopsis thaliana) (UniProt Q9SCZ4).
Sequence of UniProt Q9SCZ4 (Q9SCZ4 28-447): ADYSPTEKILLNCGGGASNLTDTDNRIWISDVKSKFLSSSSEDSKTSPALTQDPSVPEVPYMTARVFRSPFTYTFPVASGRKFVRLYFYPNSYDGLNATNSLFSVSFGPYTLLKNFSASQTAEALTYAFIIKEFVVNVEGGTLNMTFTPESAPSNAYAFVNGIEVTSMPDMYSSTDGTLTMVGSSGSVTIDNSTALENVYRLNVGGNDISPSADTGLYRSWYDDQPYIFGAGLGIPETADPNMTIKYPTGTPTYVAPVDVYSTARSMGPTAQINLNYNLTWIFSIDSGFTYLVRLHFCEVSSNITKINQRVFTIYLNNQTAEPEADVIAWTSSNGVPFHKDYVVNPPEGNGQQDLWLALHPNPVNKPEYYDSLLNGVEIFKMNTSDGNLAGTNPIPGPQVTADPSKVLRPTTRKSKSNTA

In general, Kd refers to a measure of binding affinity in units of concentration. Regarding RALF23 (from UniProt Q9LUS7), the Kd is 0.31 µM.
